US20240116997A1 (BRIGHT PEAK THERAPEUTICS, published 2024)
Where a chain is given by its changes, count along the chain named. Names and notes keep the numbering of the source. Values joined by “and” are separate entries in the source; they are usually repeats but may differ in a detail not shown here. Equal values may be shown once.

T1: IL-18 receptor (IL-18Rαβ) on cells (UniProt Q13478 19-541; O95256 20-599, limits assumed)
T1 sequence (looked up) 1: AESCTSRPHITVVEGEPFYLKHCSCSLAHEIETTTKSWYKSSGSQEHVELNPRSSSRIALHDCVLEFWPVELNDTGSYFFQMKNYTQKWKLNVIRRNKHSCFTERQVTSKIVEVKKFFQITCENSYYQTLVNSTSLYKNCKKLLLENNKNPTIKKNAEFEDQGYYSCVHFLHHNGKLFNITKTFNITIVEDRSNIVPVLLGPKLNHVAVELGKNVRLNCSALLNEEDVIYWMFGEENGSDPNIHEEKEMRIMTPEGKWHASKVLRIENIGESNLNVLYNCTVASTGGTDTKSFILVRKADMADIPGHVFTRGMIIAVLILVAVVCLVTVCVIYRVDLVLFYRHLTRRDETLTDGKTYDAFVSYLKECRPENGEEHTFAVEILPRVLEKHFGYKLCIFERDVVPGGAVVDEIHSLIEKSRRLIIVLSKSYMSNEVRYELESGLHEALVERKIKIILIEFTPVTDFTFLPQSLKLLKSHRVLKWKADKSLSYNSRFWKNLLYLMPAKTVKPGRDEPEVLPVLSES
T1 sequence (looked up) 2: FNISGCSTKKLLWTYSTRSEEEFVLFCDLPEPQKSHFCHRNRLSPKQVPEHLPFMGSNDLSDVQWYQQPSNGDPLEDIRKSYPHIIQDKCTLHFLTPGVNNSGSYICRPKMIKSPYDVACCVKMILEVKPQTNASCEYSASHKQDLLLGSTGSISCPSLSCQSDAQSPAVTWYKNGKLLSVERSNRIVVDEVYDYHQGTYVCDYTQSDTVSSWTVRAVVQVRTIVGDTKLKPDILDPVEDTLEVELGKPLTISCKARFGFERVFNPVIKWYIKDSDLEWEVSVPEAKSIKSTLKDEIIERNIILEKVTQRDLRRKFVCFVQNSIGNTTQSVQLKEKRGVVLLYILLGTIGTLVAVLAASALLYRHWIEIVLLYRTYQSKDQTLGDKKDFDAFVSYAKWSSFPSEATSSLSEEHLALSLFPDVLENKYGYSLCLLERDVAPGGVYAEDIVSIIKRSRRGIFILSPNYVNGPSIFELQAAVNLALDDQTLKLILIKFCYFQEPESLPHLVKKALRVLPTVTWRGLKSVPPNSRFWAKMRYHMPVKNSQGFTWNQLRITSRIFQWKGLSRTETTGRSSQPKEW

B1: IL-18 polypeptide SEQ ID NO: 42 (E06K, K53A, S55A, T63A) (ligand)
chain: YFGKLKSKLSVIRNLNDQVLFIDQGNRPLFEDMTDSDCRDNAPRTIFIISMYADAQPRGMAVAISVKCEKISTLSCENKIISFKEMNPPDNIKDTKSDIIFFQRSVPGHDNKMQFESSSYEGYFLACEKERDLFKLILKKEDELGDRSIMFTVQNED
B2: C162 (K8E, V11I, C38A, C76A, Q103R, C127A) (ligand)
chain: B1 chain with K6E, K8E, V11I, C38A, A53K, A55S, A63T, C76A, Q103R, C127A
B3: C143 (V11I, C38A, K53A, C76A, C127A) (ligand)
chain: B1 chain with K6E, V11I, C38A, A55S, A63T, C76A, C127A
B4: C145 (V11I, C38A, K53A, S55A, C76A, C127A) (ligand)
chain: B1 chain with K6E, V11I, C38A, A63T, C76A, C127A
B5: C150 (V11I, T34A, C38A, K53A, C76A, C127A) (ligand)
chain: B1 chain with K6E, V11I, T34A, C38A, A55S, A63T, C76A, C127A
B6: IL-18 polypeptide SEQ ID NO: 50 (E06K, K53A, T63A) (ligand)
chain: B1 chain with A55S
B7: C152 (V11I, S36A, C38A, K53A, C76A, C127A) (ligand)
chain: B1 chain with K6E, V11I, S36A, C38A, A55S, A63T, C76A, C127A
B8: C147 (V11I, C38A, K53A, D54A, C76A, C127A) (ligand)
chain: B1 chain with K6E, V11I, C38A, D54A, A55S, A63T, C76A, C127A
B9: C165 (V11I, C38A, S55R, C76A, C127A) (ligand)
chain: B1 chain with K6E, V11I, C38A, A53K, A55R, A63T, C76A, C127A
B10: C153 (V11I, D37A, C38A, K53A, C76A, C127A) (ligand)
chain: B1 chain with K6E, V11I, D37A, C38A, A55S, A63T, C76A, C127A
B11: C156 (V11I, C38A, N41A, K53A, C76A, C127A) (ligand)
chain: B1 chain with K6E, V11I, C38A, N41A, A55S, A63T, C76A, C127A
B12: IL-18 polypeptide SEQ ID NO: 59 (E6K, C38A, K53A) (ligand)
chain: B1 chain with C38A, A55S, A63T
B13: IL-18 polypeptide SEQ ID NO: 54 (E06K, K53A, C38S, C68S, C76S, C127S, K70C) (ligand)
chain: B1 chain with C38S, A55S, A63T, C68S, K70C, C76S, C127S
B14: C158 (V11I, C38A, K53A, C76A, G108A, C127A) (ligand)
chain: B1 chain with K6E, V11I, C38A, A55S, A63T, C76A, G108A, C127A
B15: C151 (V11I, D35A, C38A, K53A, C76A, C127A) (ligand)
chain: B1 chain with K6E, V11I, D35A, C38A, A55S, A63T, C76A, C127A
B16: IL-18 polypeptide SEQ ID NO: 60 (E6K, C38Q, K53A) (ligand)
chain: B1 chain with C38Q, A55S, A63T
B17: C144 (V11I, C38A, K53A, T63A, C76A, C127A) (ligand)
chain: B1 chain with K6E, V11I, C38A, A55S, C76A, C127A
B18: C148 (F2A, V11I, C38A, K53A, C76A, C127A) (ligand)
chain: B1 chain with F2A, K6E, V11I, C38A, A55S, A63T, C76A, C127A
B19: C160 (V11I, C38A, K53A, C76A, D110A, C127A) (ligand)
chain: B1 chain with K6E, V11I, C38A, A55S, A63T, C76A, D110A, C127A
B20: IL-18 polypeptide SEQ ID NO: 62 (E6K, C38A, K53A, C127A) (ligand)
chain: B1 chain with C38A, A55S, A63T, C127A
B21: C155 (V11I, C38A, D40A, K53A, C76A, C127A) (ligand)
chain: B1 chain with K6E, V11I, C38A, D40A, A55S, A63T, C76A, C127A
B22: IL-18 polypeptide SEQ ID NO: 57 (E6K, C38S, K53A) (ligand)
chain: B1 chain with C38S, A55S, A63T
B23: C154 (V11I, E31A, D37A, C38A, K53A, C76A, C127A) (ligand)
chain: B1 chain with K6E, V11I, E31A, D37A, C38A, A55S, A63T, C76A, C127A
B24: C164 (V11I, C38A, S55H, C76A, C127A) (ligand)
chain: B1 chain with K6E, V11I, C38A, A53K, A55H, A63T, C76A, C127A
B25: C161 (K8R, V11I, C38A, C76A, Q103E, C127A) (ligand)
chain: B1 chain with K6E, K8R, V11I, C38A, A53K, A55S, A63T, C76A, Q103E, C127A
B26: C149 (V11I, E31A, C38A, K53A, C76A, C127A) (ligand)
chain: B1 chain with K6E, V11I, E31A, C38A, A55S, A63T, C76A, C127A
B27: C159 (V11I, C38A, K53A, C76A, H109A, C127A) (ligand)
chain: B1 chain with K6E, V11I, C38A, A55S, A63T, C76A, H109A, C127A
B28: C157 (V11I, C38A, K53A, C76A, C127A, D132A) (ligand)
chain: B1 chain with K6E, V11I, C38A, A55S, A63T, C76A, C127A, D132A
B29: C163 (V11I, C38A, C76A, Q103K, C127A) (ligand)
chain: B1 chain with K6E, V11I, C38A, A53K, A55S, A63T, C76A, Q103K, C127A
B30: C146 (SEQ ID NO: 79; V11I, C38A, M51G, K53A, C76A, C127A) (ligand)
chain: B1 chain with K6E, V11I, C38A, M51G, A55S, A63T, C76A, C127A
B31: IL-18 polypeptide SEQ ID NO: 49 (E06K, K53A, S55A, C38S, C68S, C76S, C127S, K70C) (ligand)
chain: B1 chain with C38S, A63T, C68S, K70C, C76S, C127S
B32: IL-18 polypeptide SEQ ID NO: 48 (C38S, C68S, C76S, C127S, K70C) (ligand)
chain: B1 chain with K6E, C38S, A53K, A55S, A63T, C68S, K70C, C76S, C127S
B33: IL-18 polypeptide SEQ ID NO: 55 (K53A, T63A, C38S, C68S, C76S, C127S, K70C) (ligand)
chain: B1 chain with K6E, C38S, A55S, C68S, K70C, C76S, C127S
B34: IL-18 polypeptide SEQ ID NO: 46 (E06K, K53A, S55A, M51G) (ligand)
chain: B1 chain with M51G, A63T
B35: IL-18 polypeptide SEQ ID NO: 6 (E6K, V11I, C38A, K53A, T63A, C68A, C76A, D98C, C127A) (ligand)
chain: B1 chain with V11I, C38A, A55S, C68A, C76A, D98C, C127A
B36: IL-18 polypeptide SEQ ID NO: 9 (E6K, C38A, K53A, C68A, D98C) (ligand)
chain: B1 chain with C38A, A55S, A63T, C68A, D98C
B37: IL-18 polypeptide SEQ ID NO: 35 (Y01G, F02A, E06K, M51G, K53A, D54A, S55A, T63A) (ligand)
chain: B1 chain with Y1G, F2A, M51G, D54A
B38: IL-18 polypeptide SEQ ID NO: 4 (E6K, C38A, K53A, C68A, M86C) (ligand)
chain: B1 chain with C38A, A55S, A63T, C68A, M86C
B39: IL-18 polypeptide SEQ ID NO: 5 (E6K, V11I, C38A, K53A, T63A, C68A, C76A, M86C, C127A) (ligand)
chain: B1 chain with V11I, C38A, A55S, C68A, C76A, M86C, C127A
B40: IL-18 polypeptide SEQ ID NO: 47 (C38S, C68S, C76S, C127S) (ligand)
chain: B1 chain with K6E, C38S, A53K, A55S, A63T, C68S, C76S, C127S

What follows are binders tested against T1, IL-18 receptor (IL-18Rαβ) on cells (assay: cell-based or functional assay).

Binder	EC50 (pM), HEK-Blue IL-18R reporter assay
B1	0.79 pM
B2	2.3 pM
B3	0.98 pM
B4	3.63 pM
B5	0.7 pM
B6	1.77 pM
B7	0.25 pM
B8	1 pM
B9	1.91 pM
B10	14.1 pM
B11	11.7 pM
B12	0.268 pM
B13	9.12 pM
B14	15.6 pM
B15	13.1 pM
B16	0.203 pM
B17	0.17 pM
B18	7.28 pM
B19	2.02 pM
B20	0.17 pM
B21	0.52 pM
B22	0.86 pM and 0.53 pM
B23	11.9 pM
B24	3.14 pM
B25	2.01 pM
B26	6.6 pM
B27	19.5 pM
B28	1.95 pM
B29	1.5 pM
B30	0.8 pM

Target: T1, IL-18 receptor (IL-18Rαβ) on cells
Test: cell-based or functional assay
Remark: another data set of the same source

Binder	EC50 (nM), IFNγ induction, NK-92 cells
B1	0.144 nM
B31	58.5 nM
B2	0.093 nM
B3	0.012 nM
B4	0.037 nM
B5	0.061 nM
B6	0.0268 nM
B7	0.175 nM
B8	0.256 nM
B9	0.098 nM
B10	0.062 nM
B11	0.056 nM
B12	0.045 nM
B32	0.488 nM
B33	17.2 nM
B13	0.962 nM
B14	0.123 nM
B34	7.4 nM
B15	0.033 nM
B35	1.37 nM

Binder	EC50 (nM), IFNγ induction, NK-92 cells
B16	0.015 nM
B17	0.087 nM
B18	0.187 nM
B19	0.057 nM
B20	0.006 nM
B36	0.069 nM
B21	0.558 nM
B22	0.138 nM
B23	0.067 nM
B24	0.176 nM
B25	0.061 nM
B37	> 55 nM
B26	0.015 nM
B38	0.022 nM
B27	0.028 nM
B39	0.075 nM
B28	0.073 nM
B40	0.115 nM
B29	0.414 nM
B30	0.079 nM
